± gives the standard error. For some of these results: This sample holds only a part of the variants without activity.
B1: glmS ribozyme (parent)
chain: AUAAAAGCGCCAGAACUACAGAAAUGUAGUUGACGAGGAGGAGGUUUAUCGAAUUUUCGGCGGAUGCCUCCAAA

Key:
Details in all cases: with glucosamine-6-phosphate
glucosamine-6-phosphate [1] = variants of: B1; experiment: kcat; higher = faster cleavage; RNA array
Method in brief: (§1)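 Ribozyme variants carrying barcodes were transcribed in situ on sequenced MiSeq chips by E. coli RNA polymerase and tracked at 37 °C with a hybridised Cy3 probe. They were exposed to 40 μM to 10 mM glucosamine-6-phosphate in HEPES/KCl/Mg(OAc)2 buffer. kobs came from exponential decay fits of normalised per-tile medians, and kcat and KM from weighted Michaelis–Menten fits.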

glucosamine-6-phosphate [2] = variants of: B1; experiment: self-cleavage kobs at 40 uM GlcN6P; higher = faster cleavage; RNA array
Method in brief: as §1

glucosamine-6-phosphate [3] = variants of: B1; experiment: self-cleavage kobs at 160 uM GlcN6P; higher = faster cleavage; RNA array
Method in brief: as §1

glucosamine-6-phosphate [4] = variants of: B1; experiment: self-cleavage kobs at 640 uM GlcN6P; higher = faster cleavage; RNA array
Method in brief: as §1

glucosamine-6-phosphate [5] = variants of: B1; experiment: self-cleavage kobs at 2500 uM GlcN6P; higher = faster cleavage; RNA array
Method in brief: as §1

glucosamine-6-phosphate [6] = variants of: B1; experiment: self-cleavage kobs at 10000 uM GlcN6P; higher = faster cleavage; RNA array
Method in brief: as §1

glucosamine-6-phosphate [7] = variants of: B1; experiment: KM; higher = weaker cofactor use; RNA array
Method in brief: as §1

| Variant | kcat (glucosamine-6-phosphate [1]) | self-cleavage kobs at 40 uM GlcN6P (glucosamine-6-phosphate [2]) | self-cleavage kobs at 160 uM GlcN6P (glucosamine-6-phosphate [3]) | self-cleavage kobs at 640 uM GlcN6P (glucosamine-6-phosphate [4]) | self-cleavage kobs at 2500 uM GlcN6P (glucosamine-6-phosphate [5]) | self-cleavage kobs at 10000 uM GlcN6P (glucosamine-6-phosphate [6]) | KM (glucosamine-6-phosphate [7]) |
| --- | --- | --- | --- | --- | --- | --- | --- |
| AUAAAAGCGCCAGAACUACAGAAAUGUAAAUGACGAGGAGGAGGUUUAUCGAAUUUUCGGCGGAUGCCUCCAAA | 0.00133 ± 0.00052 s⁻¹ | 2.98e-05 ± 1.5e-05 s⁻¹ | 5.7e-05 ± 2e-05 s⁻¹ | 0.000149 ± 2.4e-05 s⁻¹ | 0.000752 ± 0.00014 s⁻¹ | 0.000862 ± 0.00016 s⁻¹ | – |
| AUAAAAGCGCCAGACCUACAGAAAUGUAGUUGACGAGGAGGAGGUUUAUCGAAUUUUCGGCGGAUGCUUCCAAA | 0.00105 ± 0.00025 s⁻¹ | – | 6.98e-05 ± 8.8e-06 s⁻¹ | 0.000191 ± 2.7e-05 s⁻¹ | 0.000847 ± 0.00011 s⁻¹ | 0.000796 ± 8.8e-05 s⁻¹ | 2390 ± 860 µM |
| AUAAAAGCGCCAGAACUACAGAAAUGUAGUCGACGAGGAGGAGGUUUAUCGAAUUUUCGGCGGAUGCCGCCAAA | 3.99e-05 ± 1.4e-05 s⁻¹ | – | – | – | 5.64e-05 ± 1.6e-05 s⁻¹ | – | – |
| AUAAAAGCGCUAGAACUACAGAAAUGUACUUGACGAGGAGGAGGUUUAUCGAAUUUUCGGCGGAUGCCUCCAAA | 0.00018 ± 9.3e-06 s⁻¹ | – | – | 4.1e-05 ± 1.1e-05 s⁻¹ | 0.000109 ± 1.3e-05 s⁻¹ | 0.00015 ± 1.2e-05 s⁻¹ | 1860 ± 290 µM |
| AUAAAAGCGCCAGAACUACAGAAAUGUAUUUGACGAGGAGGAGGUUUAUCGAAUUUUCGGCGGAUGCCGCCAAA | 5.24e-05 ± 1.4e-05 s⁻¹ | – | 5.79e-05 ± 1.4e-05 s⁻¹ | 7.49e-05 ± 1.7e-05 s⁻¹ | 5.06e-05 ± 1.2e-05 s⁻¹ | – | – |
| AUAAAAGCGCCAGAACUACAGAAAUGUAGUUGACGAGGAGGAGGUUUAUCGAAUUUUCGGAGGAUGCCUGCAAA | 1.68e-05 ± 3.8e-06 s⁻¹ | – | – | – | – | – | – |
| AUAAAAGCGCCAGAACUACAGAAAUGUAGUUGACGAGGAAGAGGUUAAUCGAAUUUUCGGCGGAUGCCUCCAAA | 0.00464 ± 0.00058 s⁻¹ | 0.000132 ± 2.1e-05 s⁻¹ | – | 0.00126 ± 0.00024 s⁻¹ | 0.0033 ± 0.00065 s⁻¹ | 0.00398 ± 0.00077 s⁻¹ | 1440 ± 270 µM |
| AUAAAAGCGCCCGAACUACAGAAAUGUAGUUGACGAGGAGGAGGUUUAUCGAAUUUUCGGCGGAUGACUCCAAA | 0.00471 ± 0.0013 s⁻¹ | 0.000204 ± 1.9e-05 s⁻¹ | 0.000456 ± 7.2e-05 s⁻¹ | 0.00125 ± 0.0002 s⁻¹ | 0.0034 ± 0.00084 s⁻¹ | 0.00467 ± 0.00054 s⁻¹ | 1180 ± 470 µM |

Reference: the supplement of paper PMC7125110
